From patent US20200255527

Experiments:
FH-AGO2-K726R = FH-AGO2-K726R (UniProt Q9UKV8)
[1] = molecular target: FH-AGO2 mono-methylated at K726 (ectopically expressed in MCF-7 cells with LSD1 inhibited) (UniProt Q9UKV8)
FH-AGO2 mono-methylated at K726 (ectopically expressed in MCF-7 cells with LSD1 inhibited), sequence (Q9UKV8 whole entry): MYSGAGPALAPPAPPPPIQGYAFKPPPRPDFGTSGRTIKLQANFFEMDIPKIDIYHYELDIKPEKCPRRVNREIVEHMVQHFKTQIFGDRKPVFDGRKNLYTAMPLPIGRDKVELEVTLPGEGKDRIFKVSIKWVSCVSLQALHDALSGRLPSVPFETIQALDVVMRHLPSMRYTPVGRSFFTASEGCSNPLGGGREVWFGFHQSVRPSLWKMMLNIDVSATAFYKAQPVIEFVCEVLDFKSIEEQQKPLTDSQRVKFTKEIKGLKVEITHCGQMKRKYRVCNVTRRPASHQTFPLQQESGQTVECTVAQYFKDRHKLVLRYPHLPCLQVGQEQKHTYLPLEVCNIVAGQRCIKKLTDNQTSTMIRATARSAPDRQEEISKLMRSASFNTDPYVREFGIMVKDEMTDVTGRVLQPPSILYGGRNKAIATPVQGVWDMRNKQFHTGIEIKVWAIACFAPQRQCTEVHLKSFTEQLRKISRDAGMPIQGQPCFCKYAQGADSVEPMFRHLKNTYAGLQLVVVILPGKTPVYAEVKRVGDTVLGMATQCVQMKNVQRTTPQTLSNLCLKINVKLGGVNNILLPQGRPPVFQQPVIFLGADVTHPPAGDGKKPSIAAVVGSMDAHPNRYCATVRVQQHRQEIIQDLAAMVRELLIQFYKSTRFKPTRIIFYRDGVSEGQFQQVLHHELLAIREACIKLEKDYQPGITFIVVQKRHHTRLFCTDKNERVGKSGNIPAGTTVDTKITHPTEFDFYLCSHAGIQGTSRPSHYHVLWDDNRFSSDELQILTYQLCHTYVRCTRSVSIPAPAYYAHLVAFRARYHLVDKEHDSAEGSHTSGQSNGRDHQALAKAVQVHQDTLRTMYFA

FH-AGO2-K726R, sequence (Q9UKV8 whole entry K726R): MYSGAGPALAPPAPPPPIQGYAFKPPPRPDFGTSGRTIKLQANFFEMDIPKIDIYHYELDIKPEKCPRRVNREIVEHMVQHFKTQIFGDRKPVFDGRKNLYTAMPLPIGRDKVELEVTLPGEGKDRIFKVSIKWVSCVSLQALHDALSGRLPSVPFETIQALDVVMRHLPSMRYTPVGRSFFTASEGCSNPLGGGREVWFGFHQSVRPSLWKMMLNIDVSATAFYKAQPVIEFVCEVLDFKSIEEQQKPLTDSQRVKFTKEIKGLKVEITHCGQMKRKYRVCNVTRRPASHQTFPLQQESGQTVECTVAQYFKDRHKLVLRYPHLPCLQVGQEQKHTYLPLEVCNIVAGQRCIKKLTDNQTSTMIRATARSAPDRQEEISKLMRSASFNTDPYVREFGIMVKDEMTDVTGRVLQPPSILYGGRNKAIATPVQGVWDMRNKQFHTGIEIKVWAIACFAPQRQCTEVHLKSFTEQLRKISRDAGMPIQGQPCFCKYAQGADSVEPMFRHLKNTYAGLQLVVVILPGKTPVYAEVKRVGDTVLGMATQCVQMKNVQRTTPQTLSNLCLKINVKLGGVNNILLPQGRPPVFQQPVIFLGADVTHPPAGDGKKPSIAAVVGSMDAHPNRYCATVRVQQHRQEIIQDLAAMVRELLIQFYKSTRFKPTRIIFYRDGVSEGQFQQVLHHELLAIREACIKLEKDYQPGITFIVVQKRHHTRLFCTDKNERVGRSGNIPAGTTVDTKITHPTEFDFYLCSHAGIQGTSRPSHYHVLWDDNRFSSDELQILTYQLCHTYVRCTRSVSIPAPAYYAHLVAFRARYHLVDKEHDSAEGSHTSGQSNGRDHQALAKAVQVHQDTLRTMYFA

Substance | K726me1 level in in vitro demethylation assay (FH-AGO2-K726R) | K726me1 level on FH-AGO2 in in vitro demethylation assay [1]
FH-LSD1 (Flag-HA-tagged LSD1 stably expressed in MCF-7 cells) | had no observable effects on FH-AGO2-K726R | FH-LSD1 but not FH-LSD1-K661A decreased K726me1 level on FH-AGO2
FH-LSD1-K661A (catalytically compromised LSD1) |  | FH-LSD1 but not FH-LSD1-K661A decreased K726me1 level on FH-AGO2
